{
  "source": "paper PMC7486399",
  "target": "angiotensin-converting enzyme 2 (ACE2) protein, purified (UniProt Q9BYF1)",
  "assay": "AFM single-molecule force spectroscopy (FD-curve-based AFM)",
  "data": [
    {"substance": "SARS-CoV-2 spike glycoprotein receptor-binding domain (from UniProt P0DTC2 319-541) (domain or fragment)", "values": [
      {"measurement": "Kd", "result": 120, "unit": "nM"},
      {"measurement": "bond lifetime τ", "result": 111, "unit": "ms"},
      {"measurement": "interaction time", "result": 0.25, "unit": "ms"}
    ]}
  ]
}
